According to paper doi:10.1101/2022.02.14.480375:

Biological target: S1PR1-SmBiT (S1P receptor-1 fused to the small fragment of split luciferase) (UniProt P21453)
Assay: split reporter

Sequence of UniProt P21453 (P21453 whole entry, the tested form may be a part): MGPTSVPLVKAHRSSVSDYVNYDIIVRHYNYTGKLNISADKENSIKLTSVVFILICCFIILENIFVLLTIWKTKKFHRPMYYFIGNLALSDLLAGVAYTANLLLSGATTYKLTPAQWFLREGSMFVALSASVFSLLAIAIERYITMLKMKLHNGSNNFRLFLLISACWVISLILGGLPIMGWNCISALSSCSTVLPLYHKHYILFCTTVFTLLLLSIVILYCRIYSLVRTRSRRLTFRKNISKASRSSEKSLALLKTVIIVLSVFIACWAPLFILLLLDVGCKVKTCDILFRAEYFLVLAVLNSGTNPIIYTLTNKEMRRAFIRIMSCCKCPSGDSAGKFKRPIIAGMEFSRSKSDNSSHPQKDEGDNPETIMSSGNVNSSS

- T1/2 of β-arrestin activation with albumin-bound S1P (1 μM S1P): 16 min
Substance: LgBiT-beta-arrestin fusion protein (from UniProt P49407 1-418) (natural protein)
